Experimental data: PMC3127751, “Adhesive polypeptides of Staphylococcus aureus identified using a novel secretion library technique in Escherichia coli” (BMC Microbiology, 2011)

B1: fibrinogen (complex)
chain 1: ADSGEGDFLAEGGGVRGPRVVERHQSACKDSDWPFCSDEDWNYKCPSGCRMKGLIDEVNQDFTNRINKLKNSLFEYQKNNKDSHSLTTNIMEILRGDFSSANNRDNTYNRVSEDLRSRIEVLKRKVIEKVQHIQLLQKNVRAQLVDMKRLEVDIDIKIRSCRGSCSRALAREVDLKDYEDQQKQLEQVIAKDLLPSRDRQHLPLIKMKPVPDLVPGNFKSQLQKVPPEWKALTDMPQMRMELERPGGNEITRGGSTSYGTGSETESPRNPSSAGSWNSGSSGPGSTGNRNPGSSGTGGTATWKPGSSGPGSTGSWNSGSSGTGSTGNQNPGSPRPGSTGTWNPGSSERGSAGHWTSESSVSGSTGQWHSESGSFRPDSPGSGNARPNNPDWGTFEEVSGNVSPGTRREYHTEKLVTSKGDKELRTGKEKVTSGSTTTTRRSCSKTVTKTVIGPDGHKEVTKEVVTSEDGSDCPEAMDLGTLSGIGTLDGFRHRHPDEAAFFDTASTGKTFPGFFSPMLGEFVSETESRGSESGIFTNTKESSSHHPGIAEFPSRGKSSSYSKQFTSSTSYNRGDSTFESKSYKMADEAGSEADHEGTHSTKRGHAKSRPV
chain 2: QGVNDNEEGFFSARGHRPLDKKREEAPSLRPAPPPISGGGYRARPAKAAATQKKVERKAPDAGGCLHADPDLGVLCPTGCQLQEALLQQERPIRNSVDELNNNVEAVSQTSSSSFQYMYLLKDLWQKRQKQVKDNENVVNEYSSELEKHQLYIDETVNSNIPTNLRVLRSILENLRSKIQKLESDVSAQMEYCRTPCTVSCNIPVVSGKECEEIIRKGGETSEMYLIQPDSSVKPYRVYCDMNTENGGWTVIQNRQDGSVDFGRKWDPYKQGFGNVATNTDGKNYCGLPGEYWLGNDKISQLTRMGPTELLIEMEDWKGDKVKAHYGGFTVQNEANKYQISVNKYRGTAGNALMDGASQLMGENRTMTIHNGMFFSTYDRDNDGWLTSDPRKQCSKEDGGGWWYNRCHAANPNGRYYWGGQYTWDMAKHGTDDGVVWMNWKGSWYSMRKMSMKIRPFFPQQ
chain 3: YVATRDNCCILDERFGSYCPTTCGIADFLSTYQTKVDKDLQSLEDILHQVENKTSEVKQLIKAIQLTYNPDESSKPNMIDAATLKSRKMLEEIMKYEASILTHDSSIRYLQEIYNSNNQKIVNLKEKVAQLEAQCQEPCKDTVQIHDITGKDCQDIANKGAKQSGLYFIKPLKANQQFLVYCEIDGSGNGWTVFQKRLDGSVDFKKNWIQYKEGFGHLSPTGTTEFWLGNEKIHLISTQSAIPYALRVELEDWNGRTSTADYAMFKVGPEADKYRLTYAYFAGGDAGDAFDGFDFGDDPSDKFFTSHNGMQFSTWDNDNDKFEGNCAEQDGSGWWMNKCHAGHLNGVYYQGGTYSKASTPNGYDNGIIWATWKTRWYSMKKTTMKIIPFNRLTIGEGQQHHLGGAKQAGDV
modifications: plasma fibrinogen (AαBβγ)2, disulfide-linked and glycosylated, fibrinopeptides retained; the main circulating forms are assumed (Aα 610 residues, γA 411 residues). The γA chain is taken from PDB …
B2: His-ΔUsp (domain or fragment)
chain: MITYKNILIAVDGSHEAEWAFNRAVGVAKRNDAKLTIVNVIDSRTYSSYEVYDAQFTEKSKHFAEELLNGYKEVATNAGVKDVETRLEFGSPKSIIPKKLAHEINADLIMSGTSGLNAVERFIVGSVSESIVRHAPCDVLVVRTEELPADFQPQVATTQLREKYQN
notes: the Usp-like gene fragment of library clone ΔUsp (as the staphylococcal part of m7), recloned by PCR into pQE30; also called ΔUsp purified 6xHis polypeptide; source: E. coli cytoplasm (pQE30), purified under native conditions (QIAexpress System), dialysed against PBS; not shown: His6, N-terminal, kept
B3: His-ΔPurK (domain or fragment)
chain: MNFNKLKFGATIGIIGGGQLGKMMAQSAQKMGYKVVVLDPSEDCPCRYVAHEFIQAKYDDEKALNQLGQKCDVITYEFENISAQQLKLLCEKYNIPQGYQAIQLLQDRLTEKETLKSAGTKVVPFISVKESTDIDKAIETLGYPFIVKTRFGGYDGKGQVLINNEKDLQEGFKLIETSECVAEKYLNIKKEVSLTVTRGNNNQITFFPLQENEHRNQILFKTIVPARIDKTAEAKEQVNKIIQSIHFIGTFTVEFFIDSNNQLYVNEIAPRPHNSGHYSIEACDYSQFDTHILAVTGQSLPNSIELLKPAVMMNLLGKDLDLLENEFNEHPEWHLHIYGKSERKDSRKMGHMTVLTNDVNQTEQDMYAKFEGSN
notes: the PurK gene fragment of library clone ΔPurK (as the staphylococcal part of m5), recloned by PCR into pQE30; also called ΔPurK purified 6xHis polypeptide; source: E. coli cytoplasm (pQE30), purified under native conditions (QIAexpress System), dialysed against PBS; not shown: His6, N-terminal, kept
B4: His-ΔFnBPA (domain or fragment)
chain: ASEQKTTTVEENGNSATDNKTSETQTTATNVNHIEETQSYNATVTEQPSNATQVTTEEAPKAVQAPQTAQPANIETVKEEVVKEEAKPQVKETTQSQDNSGDQRQVDLTPKKATQNQVAETQVEVAQPRTASESKPRVTRSADVAEAKEASNAKVETGTDVTSKVTVEIGSIEGHNNTNKVEPHAGQRAVLKYKLKFENGLHQGDYFDFTLSNNVNTHGVSTARKVPEIKNGSVVMATGEVLEGGKIRYTFTNDIEDKVDVTAELEINLFIDPKTVQTNGNQTITSTLNEEQTSKELDVKYKDGIGNYYANLNGSIETFNKANNRFSHVAFIKPNNGKTTSVTVTGTLMKGSNQNGNQPKVRIFEYLGNNEDIAKSVYANTTDTSKFKEVTSNMSGNLNLQNNGSYSLNIENLDKTYVVHYDGEYLNGTDEVDFRTQMVGHPEQLYKYYYDRGYTLTWDNGLVLYSNKANGNEKNGPIIQNNKFEYKEDTIKETLTGQYDKNLVTTVEEEYDSSTLDIDYHTAIDGGGGYVDGYIETIEETDSSAIDIDYHTAVDSEAGHVGGYTESSEESNPIDFEESTHENSKHHADVVEYEEDTNPGGGQVTTESNLVEFDEESTKGIVTGAVSDHTTVEDTKEYTTESNLIELVDELPEEHGQAQGPVEEITKNNHHISHSGLGTENGHGNYDVIEEIEENSHVDIKSELGYEGGQNSGNQSFEEDTEEDKPKYEQGGNIVDIDFDSVPQIHGQNKGNQSFEEDTEKDKPKYEHGGNIIDIDFDSVPHIHGFNKHTEIIEEDTNKDKPSYQFGGHNSVDFEEDTLPKVSGQNEGQQTIEEDTTPPIVPPTPPTPEVPSEPETPTPPTPEVPSEPETPTPPTPEVPSEPETPTPPTPEVPAEPGKPVPPAKEEPKKPSKPVEQGKVVTPVIEINEKVKAVAPTKKPQSKKSELPET
notes: the FnBPA gene fragment of library clone ΔFnBPA (as the staphylococcal part of m2); also called ΔFnBPA purified 6xHis polypeptide; source: E. coli cytoplasm (pQE30), purified under native conditions (QIAexpress System), dialysed against PBS; not shown: His6, N-terminal, kept

Experiments:
Experiment in all cases: SPR; Biacore T100, CM5 chip, Fn and Fg amine-coupled; His-polypeptides as analytes at 0.5, 1.0, 1.5, 2.0 and 2.5 μM in PBS, 30 μl/min, single cycle kinetics; steady state affinity constants
Details in all cases: both partners purified
His-ΔEbh = target: T1, His-ΔEbh (S. aureus subsp. aureus NCTC 8325-4, UniProt Q2FYJ6 40-9535)
T1 construct: the Ebh gene fragment of library clone ΔEbh (as the staphylococcal part of m3), recloned by PCR into pQE30; also called ΔEbh purified 6xHis polypeptide; source: E. coli cytoplasm (pQE30), purified under native conditions (QIAexpress System), dialysed against PBS; not shown: His6, N-terminal, kept

His-ΔCoa = His-ΔCoa (S. aureus subsp. aureus NCTC 8325-4, UniProt Q2G1D3 1-636)
fibrinogen = target: B1
human plasma fibronectin = human plasma fibronectin (human)
Sequence of human plasma fibronectin (human) (P02751 other isoform, or with tags, fused parts or gaps, chain 1 of 2): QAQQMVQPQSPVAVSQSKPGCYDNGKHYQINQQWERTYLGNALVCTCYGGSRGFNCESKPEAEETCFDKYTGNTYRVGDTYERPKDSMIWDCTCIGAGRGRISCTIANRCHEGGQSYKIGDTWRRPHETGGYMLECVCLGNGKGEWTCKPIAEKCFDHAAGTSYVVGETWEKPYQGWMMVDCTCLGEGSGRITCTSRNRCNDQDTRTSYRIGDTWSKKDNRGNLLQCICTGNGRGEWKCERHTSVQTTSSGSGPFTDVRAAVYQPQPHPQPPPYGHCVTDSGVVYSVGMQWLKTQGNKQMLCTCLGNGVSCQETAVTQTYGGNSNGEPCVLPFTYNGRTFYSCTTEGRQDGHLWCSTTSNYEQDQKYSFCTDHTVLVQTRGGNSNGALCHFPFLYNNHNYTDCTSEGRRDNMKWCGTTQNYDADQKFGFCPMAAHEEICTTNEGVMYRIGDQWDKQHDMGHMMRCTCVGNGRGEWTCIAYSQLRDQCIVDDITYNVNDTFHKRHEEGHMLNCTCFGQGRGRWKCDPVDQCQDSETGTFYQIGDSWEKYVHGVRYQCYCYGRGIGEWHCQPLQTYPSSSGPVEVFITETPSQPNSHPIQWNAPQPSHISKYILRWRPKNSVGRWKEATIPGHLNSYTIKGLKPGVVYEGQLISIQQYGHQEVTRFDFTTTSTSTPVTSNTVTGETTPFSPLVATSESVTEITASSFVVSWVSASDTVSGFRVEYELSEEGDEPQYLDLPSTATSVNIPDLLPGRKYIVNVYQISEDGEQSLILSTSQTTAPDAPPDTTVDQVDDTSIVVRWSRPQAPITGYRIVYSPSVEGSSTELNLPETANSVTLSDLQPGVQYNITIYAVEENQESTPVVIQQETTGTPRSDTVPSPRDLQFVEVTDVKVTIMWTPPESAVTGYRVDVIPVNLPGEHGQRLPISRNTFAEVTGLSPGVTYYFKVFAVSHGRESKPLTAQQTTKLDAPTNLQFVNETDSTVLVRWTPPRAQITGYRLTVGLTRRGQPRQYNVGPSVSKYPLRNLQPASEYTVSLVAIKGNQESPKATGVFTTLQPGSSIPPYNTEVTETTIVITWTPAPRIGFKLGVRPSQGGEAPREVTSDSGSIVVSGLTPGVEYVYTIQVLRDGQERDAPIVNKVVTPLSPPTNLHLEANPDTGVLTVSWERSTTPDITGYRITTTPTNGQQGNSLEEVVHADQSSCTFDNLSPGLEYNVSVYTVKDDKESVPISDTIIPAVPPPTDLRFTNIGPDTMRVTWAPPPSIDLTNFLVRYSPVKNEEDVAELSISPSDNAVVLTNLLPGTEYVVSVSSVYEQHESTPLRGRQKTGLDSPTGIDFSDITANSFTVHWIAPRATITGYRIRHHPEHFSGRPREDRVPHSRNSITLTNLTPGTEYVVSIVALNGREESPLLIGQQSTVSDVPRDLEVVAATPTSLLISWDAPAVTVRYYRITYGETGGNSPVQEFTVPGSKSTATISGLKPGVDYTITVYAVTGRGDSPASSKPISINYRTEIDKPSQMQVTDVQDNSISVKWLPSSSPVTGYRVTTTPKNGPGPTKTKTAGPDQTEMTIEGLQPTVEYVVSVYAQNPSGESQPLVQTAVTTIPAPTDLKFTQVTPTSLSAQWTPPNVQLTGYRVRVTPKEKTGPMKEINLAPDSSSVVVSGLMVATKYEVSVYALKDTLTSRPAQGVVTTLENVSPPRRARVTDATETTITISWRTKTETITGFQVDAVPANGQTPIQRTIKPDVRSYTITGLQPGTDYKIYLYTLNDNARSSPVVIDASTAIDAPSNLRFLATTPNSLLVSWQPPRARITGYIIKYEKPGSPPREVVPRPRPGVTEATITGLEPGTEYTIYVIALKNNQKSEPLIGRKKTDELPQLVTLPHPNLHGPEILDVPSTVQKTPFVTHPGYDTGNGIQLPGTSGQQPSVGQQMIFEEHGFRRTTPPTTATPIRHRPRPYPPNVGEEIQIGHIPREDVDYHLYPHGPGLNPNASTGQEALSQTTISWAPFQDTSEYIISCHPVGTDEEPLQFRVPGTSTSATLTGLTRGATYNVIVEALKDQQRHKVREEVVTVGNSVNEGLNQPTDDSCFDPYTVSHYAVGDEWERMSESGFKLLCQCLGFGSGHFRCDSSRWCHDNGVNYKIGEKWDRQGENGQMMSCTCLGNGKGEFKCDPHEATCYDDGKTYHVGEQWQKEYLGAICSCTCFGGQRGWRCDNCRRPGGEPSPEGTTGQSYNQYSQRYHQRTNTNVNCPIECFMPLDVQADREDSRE
Sequence of human plasma fibronectin (human) (P02751 other isoform, or with tags, fused parts or gaps, chain 2 of 2): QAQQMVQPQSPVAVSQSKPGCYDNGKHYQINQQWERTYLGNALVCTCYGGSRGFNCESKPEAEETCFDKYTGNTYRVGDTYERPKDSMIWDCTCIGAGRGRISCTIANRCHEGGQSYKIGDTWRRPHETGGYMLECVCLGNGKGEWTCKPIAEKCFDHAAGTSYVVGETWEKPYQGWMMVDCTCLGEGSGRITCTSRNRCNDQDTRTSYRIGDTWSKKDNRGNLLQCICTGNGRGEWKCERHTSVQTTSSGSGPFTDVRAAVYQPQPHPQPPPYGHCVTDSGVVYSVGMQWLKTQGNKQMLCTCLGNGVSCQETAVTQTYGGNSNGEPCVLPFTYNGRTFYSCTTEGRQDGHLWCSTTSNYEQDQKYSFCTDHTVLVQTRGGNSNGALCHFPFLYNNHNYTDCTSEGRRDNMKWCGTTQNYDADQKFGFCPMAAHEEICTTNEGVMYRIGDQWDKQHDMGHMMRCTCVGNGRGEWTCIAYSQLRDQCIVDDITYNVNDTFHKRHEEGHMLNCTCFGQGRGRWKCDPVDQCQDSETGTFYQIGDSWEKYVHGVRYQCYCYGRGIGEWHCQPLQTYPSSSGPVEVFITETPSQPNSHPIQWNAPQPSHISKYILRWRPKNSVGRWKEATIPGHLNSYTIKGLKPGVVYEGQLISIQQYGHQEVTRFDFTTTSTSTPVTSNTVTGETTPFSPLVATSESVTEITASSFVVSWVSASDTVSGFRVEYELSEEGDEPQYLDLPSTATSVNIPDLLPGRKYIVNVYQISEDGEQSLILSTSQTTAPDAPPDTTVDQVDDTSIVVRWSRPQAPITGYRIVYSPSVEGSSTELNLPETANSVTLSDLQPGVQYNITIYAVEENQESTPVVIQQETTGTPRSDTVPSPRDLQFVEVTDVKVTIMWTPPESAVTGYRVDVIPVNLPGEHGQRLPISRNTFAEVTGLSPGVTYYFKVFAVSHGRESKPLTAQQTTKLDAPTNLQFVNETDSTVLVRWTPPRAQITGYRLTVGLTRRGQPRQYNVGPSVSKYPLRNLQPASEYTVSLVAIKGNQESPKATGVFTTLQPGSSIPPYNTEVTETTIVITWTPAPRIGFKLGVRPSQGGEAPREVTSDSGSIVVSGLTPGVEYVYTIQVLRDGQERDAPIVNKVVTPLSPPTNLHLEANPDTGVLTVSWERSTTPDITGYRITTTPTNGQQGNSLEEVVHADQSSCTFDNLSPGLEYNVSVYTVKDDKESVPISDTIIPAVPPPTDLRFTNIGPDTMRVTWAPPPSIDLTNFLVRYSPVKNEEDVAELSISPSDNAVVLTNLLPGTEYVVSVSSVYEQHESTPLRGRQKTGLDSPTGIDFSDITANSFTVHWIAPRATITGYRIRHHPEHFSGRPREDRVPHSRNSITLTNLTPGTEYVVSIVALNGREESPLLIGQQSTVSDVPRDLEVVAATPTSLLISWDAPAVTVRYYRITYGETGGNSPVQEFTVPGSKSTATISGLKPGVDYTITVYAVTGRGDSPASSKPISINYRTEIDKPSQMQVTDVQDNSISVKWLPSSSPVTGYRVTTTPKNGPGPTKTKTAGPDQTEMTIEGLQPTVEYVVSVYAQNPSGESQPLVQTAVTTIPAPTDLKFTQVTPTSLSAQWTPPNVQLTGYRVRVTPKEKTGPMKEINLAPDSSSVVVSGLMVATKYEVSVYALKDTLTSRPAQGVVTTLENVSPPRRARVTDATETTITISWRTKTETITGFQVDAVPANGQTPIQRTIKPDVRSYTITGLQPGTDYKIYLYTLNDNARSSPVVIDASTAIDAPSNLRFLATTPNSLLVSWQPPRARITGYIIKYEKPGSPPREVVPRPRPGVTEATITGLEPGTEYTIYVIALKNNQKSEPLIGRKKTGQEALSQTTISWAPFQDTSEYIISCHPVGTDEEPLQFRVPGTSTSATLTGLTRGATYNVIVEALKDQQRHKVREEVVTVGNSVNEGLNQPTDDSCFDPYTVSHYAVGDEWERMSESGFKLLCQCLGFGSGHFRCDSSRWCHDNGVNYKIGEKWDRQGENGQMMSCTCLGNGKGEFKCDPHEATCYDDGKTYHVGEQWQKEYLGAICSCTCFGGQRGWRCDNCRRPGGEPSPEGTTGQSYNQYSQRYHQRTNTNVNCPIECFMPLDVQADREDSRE

| Binder | Kd (His-ΔEbh) | Kd (His-ΔCoa) | Kd (fibrinogen) | Kd (human plasma fibronectin) |
| --- | --- | --- | --- | --- |
| B1 | 1.25 µM | 0.18 µM | – | – |
| B2 | – | – | 6.45 µM | – |
| B3 | – | – | 5.39 µM | 0.443 µM |
| B4 | – | – | – | 5.24 µM |
